Results published in the Human Domainome abundance scans (Beltran et al. 2025).
± gives the uncertainty stated by the source.

B1: Chromodomain-helicase-DNA-binding protein 4, residues 444 to 496; numbered along this chain, Q14839 (parent)
chain: EDDHHMEFCRVCKDGGELLCCDTCPSSYHIHCLNPPLPEIPNGEWLCPRCTCP
B2: Protein piccolo, residues 1058 to 1114; numbered along this chain, Q9Y6V0 (parent)
chain: TCPLCKTELNIGSKDPPNFNTCTECKNQVCNLCGFNPTPHLTEIQEWLCLNCQTQRA

Variants of: B1
Assay: abundance fitness (aPCA) (normalised: wild type 0, dead -1); higher = more abundant; growth selection in yeast, the domain comes from the species named
Conditions: Homo sapiens

Variant | abundance fitness
C50D | -0.633 ± 0.05
C50E | -0.708 ± 0.095
C50F | -0.895 ± 0.056
C50G | -0.727 ± 0.059
C50H | -0.286 ± 0.05
C50I | -1.08 ± 0.12
C50K | -0.58 ± 0.1
C50L | -0.845 ± 0.043
C50M | -0.986 ± 0.052
C50N | -0.46 ± 0.092
C50P | -0.755 ± 0.047
C50Q | -0.769 ± 0.08
C50S | -0.622 ± 0.054
C50T | -0.78 ± 0.051
C50V | -0.791 ± 0.044
C50W | -1.11 ± 0.1
C50Y | -1.02 ± 0.13
T51C | -0.151 ± 0.076
T51D | 0.152 ± 0.083
T51E | 0.074 ± 0.074
T51F | 0.048 ± 0.077
T51G | -0.136 ± 0.042
T51H | -0.169 ± 0.08
T51K | -0.051 ± 0.082
T51L | -0.003 ± 0.046
T51M | -0.097 ± 0.056

Variant | abundance fitness
T51N | 0.12 ± 0.072
T51P | 0.031 ± 0.046
T51Q | -0.03 ± 0.061
T51R | -0.073 ± 0.053
T51S | 0.013 ± 0.056
T51V | -0.048 ± 0.05
T51W | -0.12 ± 0.06
T51Y | -0.171 ± 0.072
C52D | -0.218 ± 0.17
C52E | 0.489 ± 0.12
C52F | -0.358 ± 0.23
C52G | 0.294 ± 0.081
C52H | 0.096 ± 0.16
C52I | -0.189 ± 0.18
C52L | 0 ± 0.11
C52M | 0.433 ± 0.11
C52N | -0.161 ± 0.16
C52P | -0.667 ± 0.34
C52Q | 0.145 ± 0.068
C52S | -0.002 ± 0.11
C52T | 0.288 ± 0.13
C52V | 0.032 ± 0.091
C52W | -0.033 ± 0.14
C52Y | -0.019 ± 0.097
P53H | 0.616 ± 0.46
P53S | -0.455 ± 0.2

Variants of: B2
Assay: as above
Conditions: Homo sapiens

Variant | abundance fitness
ACPLCKTELNIGSKDPPNFNTCTECKNQVCNLCGFNPTPHLTEIQEWLCLNCQTQRA [T1A] | -0.534 ± 0.33
ECPLCKTELNIGSKDPPNFNTCTECKNQVCNLCGFNPTPHLTEIQEWLCLNCQTQRA [T1E] | -0.142 ± 0.46
GCPLCKTELNIGSKDPPNFNTCTECKNQVCNLCGFNPTPHLTEIQEWLCLNCQTQRA [T1G] | -0.205 ± 0.27
ICPLCKTELNIGSKDPPNFNTCTECKNQVCNLCGFNPTPHLTEIQEWLCLNCQTQRA [T1I] | -0.024 ± 0.22
KCPLCKTELNIGSKDPPNFNTCTECKNQVCNLCGFNPTPHLTEIQEWLCLNCQTQRA [T1K] | -0.424 ± 0.49
LCPLCKTELNIGSKDPPNFNTCTECKNQVCNLCGFNPTPHLTEIQEWLCLNCQTQRA [T1L] | -0.078 ± 0.27
MCPLCKTELNIGSKDPPNFNTCTECKNQVCNLCGFNPTPHLTEIQEWLCLNCQTQRA [T1M] | -0.031 ± 0.18
PCPLCKTELNIGSKDPPNFNTCTECKNQVCNLCGFNPTPHLTEIQEWLCLNCQTQRA [T1P] | -0.239 ± 0.36
RCPLCKTELNIGSKDPPNFNTCTECKNQVCNLCGFNPTPHLTEIQEWLCLNCQTQRA [T1R] | -0.21 ± 0.25
SCPLCKTELNIGSKDPPNFNTCTECKNQVCNLCGFNPTPHLTEIQEWLCLNCQTQRA [T1S] | -0.129 ± 0.18
VCPLCKTELNIGSKDPPNFNTCTECKNQVCNLCGFNPTPHLTEIQEWLCLNCQTQRA [T1V] | -0.202 ± 0.25
WCPLCKTELNIGSKDPPNFNTCTECKNQVCNLCGFNPTPHLTEIQEWLCLNCQTQRA [T1W] | -0.516 ± 0.23
TAPLCKTELNIGSKDPPNFNTCTECKNQVCNLCGFNPTPHLTEIQEWLCLNCQTQRA [C2A] | -1.3 ± 0.23
